Our source for the Km and kcat values is publication PMC10057929, “Improvement of Laccase Production by Thielavia terrestris Co3Bag1. Enhancing the Bio-Catalytic Performance of the Native Thermophilic TtLacA via Immobilization in Copper Alginate Gel Beads” (Journal of Fungi, 2023).

Substrate in the series: CCn1c(=NN=c2sc3cc(S(=O)(=O)O)ccc3n2CC)sc2cc(S(=O)(=O)O)ccc21
In words: purified protein. The class given is biochemical, Thermothielavioides terrestris. The following applies: free enzyme, pH 3.0 glycine-HCl, 65 °C, 5 min, 0.05 to 5 mM ABTS.

B1: TtLacA (Thermothielavioides terrestris NRRL 8126) (protein)
chain: MGLLRGLLESVSETLELFYTATATLTQESTNGLSLLGTLLARVLPLFLTNNPLPDGFPWGSLSDTNTNPYVDYPRTGVVRYYDFTVSRGIIAPDGYQRDVLLVNGAYPGPLIEANWGDTIVVTVHNNISNPEDGTTIHWHGFLQRETPWADGAPGISQCPIPPGSSYTYEFVASLFGTSWYHAHYSAQYAGGVVGPIVVYGPTHAKYDVDLGPIMLSDWYHREYFDIVKELLSPNASPRVLSDNNLIDGKMNFDCSTVAPGDNTPCTDRAGISKFKFQTGKTHRLRLINSGADGVQRFSIDQHTLTVIAEDFVPVKPYNTTVVTLGVGQRTDVLVTANAGPPDSLFWMRSNLTTCSPARQPNALAAVYYDKADTSATPSSRPWDVPDPGTCANDPLDISEPLYPIPLPKPAITQTMDIELFKNASNVTLWKFNGVSMRTDYNSPVILLANQGNFSYPPEWNVVNYQQTTAIRIIINNKGPGPHPMHLHGHNFYILHEGPGEWDGTIVRPSNPMRRDVELVRGNGHLVIQFDGAPGVWAFHCHIAWHSSGGFLASLLVQPHKVQQMHLPGDVEQNCRAWDLWTKHNVVDQIDSGT
notes: native secreted enzyme purified from culture supernatant, free (not immobilised); 70 kDa by SDS-PAGE; MS/MS peptides QPNALAAVYYDK, YDVDLGPIMLSDWYHR, VLSDNNLIDGK, LINSGADGVQR
Usually Km stands for the concentration of substrate that gives half-maximal velocity. Broadly, the kcat is the maximal rate divided by the concentration of active sites. B1: the Km stood at 260 µM and the kcat came out at 13.73 s⁻¹.
